Results reported in US10125184B2, “Apolipoprotein E polypeptides and their use” (priority 2011, dated 2018).
Read-outs that look alike come from different tables or passages of the source.

B1: hEP: human apoE dual-domain peptide: helix 4 of N-terminal domain plus major lipid-binding region; expressed in bacteria (protein)
peptide: EELRVRLASHLRKLRKRLLRDADDLQKRLAVYEEQAQQIRLQAEAFQARLKSWFEPLVEDM

Key:
[1] = DMPC binding assay (turbidity OD490nm)
Experimental: FIGS. 3A-3C. Both hEP and mEP mediate plasma cholesterol clearance through hepatic lipoprotein receptors. (A) DMPC binding assay was conducted as described in the examples section. The turbidity of DMPC vesicle solution was monitored by OD490 nm. The curves were representative of two independent experiments. (B) HEK293T cells were loaded with DiI-LDL (5 μg/ml) along with apoE peptide-DMPC particles which competed with DiI-LDL for LDLR binding and LDLR-mediated endocytosis (for 30 min) n=3 for each group. (C) Each peptide (100 μg in 100 μl PBS) was retro-orbitally injected into 6-month-old apoE−/− mice (two mice each group). PBS (100 μl) was injected into two other mice as control. Before (set as 0 min time point) and 5 min, 30 min, 1 h, 2 h, and 4 h after the peptide or PBS injection, 30 μl blood samples were drawn for plasma cholesterol measurement using total Cholesterol Reagent Kit (Raichem, San Diego, Calif.).
1,2-dimyristoyl-sn-glycero-3-phosphatidylcholine (DMPC) (Avanti Polar Lipids Inc., Alabaster, Ala.) was dissolved in chloroform: methanol (3:1, v/v). It was dried thoroughly under a stream of N2. The dried lipid sample was dispersed in pre-warmed buffer (10 mM Tris-HCl, pH7.2; 150 mM NaCl; 0.5 mM EDTA) to final lipid concentration of 10 mg/ml, vortexed for 1 min, and sonicated 10 times at lowest power for 10 seconds at 24° C. The peptide solution, lipid solution and buffer were all maintained at 23.9° C. One milliliter buffer and 250 μg (25 μl lipid solution) were added in a quartz cuvette, and let equilibrate for 10 min, resulting in a turbid DMPC vesicle solution. Peptide solution (250 μg in 100 μl) was then added to turbid solution in the cuvette, the solution was mixed immediately, and the change of turbidity was monitored by OD at 490 nm as a function of time. If the peptide binds to DMPC vesicles, the large DMPC vesicles will be transformed into smaller DMPC-peptide particles, reducing the turbidity of the solution.

JFH-1 HCVcc-Luc = tested on: JFH-1 HCVcc-Luc
Experimental: FIGS. 1A-1C. […] (A) Schematic illustration of apoE protein domains and the amino acid sequences of hEP and mEP peptides. The amino acid sequences shown are hEP-1 (SEQ ID NO: 6) and mEP (SEQ ID NO: 20). […] Huh7.5.1 cells were infected with JFH-1 HCVcc-Luc (MOI˜0.5) in the presence of hEP or mEP for 2 hours. After removal of virus and peptides, cells were further incubated for 48 hours prior to luciferase assay. Data are presented as % inhibition relative to control infections in which cells were treated with DMSO (0%). Results are expressed as mean±standard deviation (s.d.) (n=3). (C). Huh7.5.1 cells were treated with hEP or DMSO at indicated doses for 48 hours. The effect of hEP on cell viability was measured by a CellTiter Glo assay kit.
FIGS. 7A-7E. Mapping the anti-viral activity of hEP. In (A) and (B), HCVcc-luc was first mixed with indicated peptides (20 μg/ml, 2.7 μM) and then incubated with Huh7.5.1 cells for two hours at 37° C. to initiate infection. After additional 48 hours incubation, luciferase activity was measured. Results are presented as fold of inhibition relative to infections containing DMSO (n=5, mean±sd). (C) 20 μg of hEP-2 or hEP-2/ΔCys were resuspended in PBS and kept at room temperature for 30 minutes. Peptides were then mixed with 2×SDS-sample buffer without DTT and boiled for 5 minutes. Alternatively, samples were simply left unboiled or mixed with sample buffer containing DTT (2 mM). Peptide samples were then subjected to electrophoresis on a 16% tricine non-reducing gel (Invitrogen). […] (D) and (E) Mass spectrometric analysis of hEP-2 or hEP-2/ΔCys.
Detailed procedures involving the production and use of HCVpp and HCVcc have been published elsewhere (Liu et al., J Virol 2009; 83:2011-2014; Yang et al., Hepatology 2008; 48:1396-1403; Yang et al., J Biol Chem 2008; 283:8643-8653). Production procedure of HCVcc expressing firefly luciferase that was inserted between NS5A and NS5B (JFH-1 strain) was described elsewhere (Liu et al., Virology 2010; 407:160-170). Unless otherwise indicated, viruses were typically added to cells for two hours before removal. Cells were incubated for additional 48 hours followed by luciferase assay. When purification was needed, HCVcc were subjected to ultracentrifugation (SW41, 28,000×g) for 4 hours through a 20% sucrose cushion. Deidentified human sera, collected from five patients containing high-titer HCV (HCVser), were obtained.

Molecule	DMPC binding ([1]; reduction (percentage) of turbidity (OD490nm) of DMPC solution, plateau 10 minutes after addition of peptide)	IC50 (JFH-1 HCVcc-Luc; HCVcc infection of Huh7.5.1 cells) [nM]	Binding to DMPC (in words) ([1]; DMPC vesicles, turbidity)	IC50 (JFH-1 HCVcc-Luc; read-out: 50% inhibitory concentration (IC50) of HCVcc infection, JFH-1 HCVcc-Luc MOI~0.5, peptide present 2 hours, luciferase after 48 hours) [nM]	Suppression of HCVcc infection at various MOIs (JFH-1 HCVcc-Luc; various MOIs)
EELRVRLASHLRKLRKRLLRDADDLQKRLAVYEEQAQQIRLQAEAFQARLKSWFEPLVEDM [hEP-1]	+ (+, reduction 25-50%)	670			
B1			efficiently bound	670	robustly suppressed
